This passage reports binding result and Kd results from patent publication US20240190999A1 (Molecular Partners, published 2024).

Assay [1] deals with T1, biotinylated human 4-1BB (bio.h4-1BB) (human, UniProt Q07011 24-186, limits assumed, biotinylated (site not stated)).
T1 construct: also called CD137
Nature of the assay: SPR (ProteOn XPR36), biotinylated human 4-1BB immobilised, construct as analyte.

The target in assay [2] is T2, human fibroblast activation protein (hFAP) (human, UniProt Q12884 26-760, limits assumed).
T2 construct: Recombinant soluble protein; also called human FAP; rhFAP
T2 sequence (Q12884 26-760 limits assumed): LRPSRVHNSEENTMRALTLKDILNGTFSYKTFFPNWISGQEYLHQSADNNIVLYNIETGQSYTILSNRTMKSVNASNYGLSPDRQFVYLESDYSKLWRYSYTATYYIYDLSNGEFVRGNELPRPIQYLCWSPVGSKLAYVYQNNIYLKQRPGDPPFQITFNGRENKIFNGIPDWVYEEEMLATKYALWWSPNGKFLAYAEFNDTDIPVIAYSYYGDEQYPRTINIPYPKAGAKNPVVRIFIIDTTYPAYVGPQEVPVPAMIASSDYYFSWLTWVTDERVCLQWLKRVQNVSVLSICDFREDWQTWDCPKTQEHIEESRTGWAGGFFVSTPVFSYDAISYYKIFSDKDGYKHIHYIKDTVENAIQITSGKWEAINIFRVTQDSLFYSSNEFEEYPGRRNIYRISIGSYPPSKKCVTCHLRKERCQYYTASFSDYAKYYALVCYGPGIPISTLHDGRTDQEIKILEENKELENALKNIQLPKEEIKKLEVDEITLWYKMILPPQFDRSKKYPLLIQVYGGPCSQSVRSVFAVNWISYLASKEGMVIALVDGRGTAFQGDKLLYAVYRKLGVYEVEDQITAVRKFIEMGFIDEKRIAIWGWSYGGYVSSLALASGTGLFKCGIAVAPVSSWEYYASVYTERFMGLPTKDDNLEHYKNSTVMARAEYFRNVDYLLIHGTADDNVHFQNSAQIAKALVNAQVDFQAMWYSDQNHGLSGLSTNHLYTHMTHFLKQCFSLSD
Nature of the assay: SPR (ProteOn XPR36), hFAP immobilised on GLC chip, construct as analyte. The method, then: Assay set-up: Briefly, SPR measurements were performed using a ProteOn XPR36 instrument (BioRad) as described above. Biotinylated human and cynomolgus 4-1BB and human FAP were immobilized either directly or indirectly via NeutrAvidin (˜6000 RU pre-coated) on a GLC chip to reach 600 RU, 700 RU and 2000 RU, respectively. The interaction of FAP-4-1BB bispecific constructs to the coated targets was measured by injecting the bispecific constructs in a serial dilution of 50, 16.7, 5.6, 1.9 and 0.6 nM with an association of 120 s and dissociation of 1800 s using a constant flow rate of 30 μl/min. Targets were regenerated between the individual measurements using 10 mM glycine pH 2 and 124 mM H₃PO₄. The signals were double referenced against the running buffer (PBST) treated control lane.

T1 sequence (Q07011 24-186 limits assumed): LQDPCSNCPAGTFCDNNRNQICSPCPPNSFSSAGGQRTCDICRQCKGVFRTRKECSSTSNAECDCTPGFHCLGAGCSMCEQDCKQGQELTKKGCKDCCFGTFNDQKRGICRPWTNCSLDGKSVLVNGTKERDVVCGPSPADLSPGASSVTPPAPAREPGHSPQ

B1: bispecific construct #50 (designed binder)
chain: MRGSHHHHHHGSDLGEKLLVAALYGQDDEVRILLAAGADVNAKDQWGLTPLHKAALQGHLEIVEVLLKAGADVNAKDERGHTPLHWAARFGHLEIVEVLLKAGADVNAQDQKGYTPADLAALWGHEDIAEVLQKAAGSPTPTPTTPTPTPTTPTPTPTGSDLGKKLLEAARAGQDDEVRELLKAGADVNAKDKDGYTPLHLAAREGHLEIVEVLLKAGADVNAKDKDGYTPLHLAAREGHLEIVEVLLKAGADVNAQDKSGKTPADLAADAGHEDIAEVLQKAA
notes: also called negative control construct #50
Broadly, the Kd is a measure of binding affinity in units of concentration. In the case of B1, in assay [1], the binding result is on record as “no binding (tested: 50 nM highest concentration injected)”. In addition, the affinity in assay [2], expressed as Kd, was 0.22 nM.
